In patent publication US20210317223A1 (DRAGONFLY THERAPEUTICS, published 2021):
One block for each binder: values may come before it.

Tests used:
CD16-F158V = molecular target: T1, CD16-F158V (UniProt P08637 17-254); test: flow cytometry on KHYG-1 cells transduced with CD16-F158V (the cells also express NKG2D), anti-human IgG secondary antibody, MFI
T1 construct: whole, on cells; It is probably the mature protein, so it may not match the position on the precursor entry; The KHYG-1 cells also express NKG2D
T1 sequence (P08637 17-254 F176V): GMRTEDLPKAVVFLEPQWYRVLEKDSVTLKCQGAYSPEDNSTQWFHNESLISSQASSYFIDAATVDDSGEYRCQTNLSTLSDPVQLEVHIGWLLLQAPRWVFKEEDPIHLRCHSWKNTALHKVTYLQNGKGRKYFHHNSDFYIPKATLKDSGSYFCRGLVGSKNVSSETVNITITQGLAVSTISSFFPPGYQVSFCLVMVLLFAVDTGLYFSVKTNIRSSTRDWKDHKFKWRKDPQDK
Method: (§1) The KHYG-1 human NK cell line was used to assess NKG2D binding of TriNKET NKG2D-binding-F4-TriNKET-BCMA. KHYG-1 cells transduced to express CD16-F158V were used to investigate the contribution of Fc CD16 binding. TriNKETs were diluted, and were incubated with KHYG-1 cells. Binding of the TriNKET was detected using a fluorophore conjugated anti-human IgG secondary antibody. Cells were analyzed by flow cytometry and Median Fluorescence Intensity (“MFI”) reported.

[1] = molecular target: T2, B-cell maturation antigen (BCMA) (human, UniProt Q02223 1-184); test: flow cytometry on KMS12-PE cells, 100 ug/mL, incubation times as labelled, anti-human IgG secondary antibody
T2 construct: This is endogenous BCMA on human myeloma cell lines (KMS12-PE low, MM.1R high expression); the whole entry is used; also called surface BCMA
T2 sequence: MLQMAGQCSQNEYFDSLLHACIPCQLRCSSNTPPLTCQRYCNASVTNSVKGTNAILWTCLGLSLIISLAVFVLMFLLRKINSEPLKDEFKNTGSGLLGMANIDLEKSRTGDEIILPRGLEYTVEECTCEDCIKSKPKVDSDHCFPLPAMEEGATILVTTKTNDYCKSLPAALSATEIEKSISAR
Method: KMS12-PE or MM.1R cells were incubated with an anti-BCMA monoclonal antibody (MAB42), bivalent TriNKET (NKG2D-binding-F4-TriNKET-BCMA), or monovalent TriNKET (A49-DB-TriNKET-BCMA). A49-DB-TriNKET-BCMA is a TriNKET in which the first antigen-binding site comprises an Fab that binds NKG2D and the second antigen-binding site comprises an Fab that binds BCMA, each connected to an Fc domain, forming a bi-valent antibody (WO2018/148566).
To assess total surface BCMA, a saturating concentration of 100 μg/mL was used, whereas 100 ng/mL was selected to investigate sub-saturation surface stabilization. Each sample was divided into thirds, with an aliquot each placed on ice for 20 minutes, at 37° C. for 2 hours or 37° C. for 24 hours. After the incubation period cells were washed and bound TriNKET was detected using an anti-human IgG secondary antibody. After staining the cells were fixed and stored at 4° C., all samples were analyzed at the end of the study.

NKG2D = molecular target: T3, NKG2D (human, UniProt P26718 1-216); test: flow cytometry on KHYG-1 parental (CD16-) cells expressing NKG2D, anti-human IgG secondary antibody, MFI
T3 construct: whole, on cells; also called NKG2D receptor
T3 sequence (looked up): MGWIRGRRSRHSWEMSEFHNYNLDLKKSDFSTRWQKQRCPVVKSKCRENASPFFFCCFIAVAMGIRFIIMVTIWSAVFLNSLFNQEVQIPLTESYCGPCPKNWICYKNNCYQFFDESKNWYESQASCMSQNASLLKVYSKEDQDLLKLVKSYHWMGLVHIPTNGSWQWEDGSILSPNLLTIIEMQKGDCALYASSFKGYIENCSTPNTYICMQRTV
Method: as §1

- binding result (CD16-F158V): binds
- binding result [1]: binds
B1: NKG2D-binding-F4-TriNKET-BCMA (bispecific antibody, human IgG1, kappa)
heavy 1: EVQLLESGGGLVQPGGSLRLSCAASGFTFSDNAMGWVRQAPGKGLEWVSAISGPGSSTYYADSVKGRFTISRDNSKNTLYLQMNSLRAEDTAVYYCAKVLGWFDYWGQGTLVTVSSASTKGPSVFPLAPSSKSTSGGTAALGCLVKDYFPEPVTVSWNSGALTSGVHTFPAVLQSSGLYSLSSVVTVPSSSLGTQTYICNVNHKPSNTKVDKKVEPKSCDKTHTCPPCPAPELLGGPSVFLFPPKPKDTLMISRTPEVTCVVVDVSHEDPEVKFNWYVDGVEVHNAKTKPREEQYNSTYRVVSVLTVLHQDWLNGKEYKCKVSNKALPAPIEKTISKAKGQPREPRVYTLPPCRDELTKNQVSLTCLVKGFYPSDIAVEWESNGQPENNYKTTPPVLVSDGSFTLYSKLTVDKSRWQQGNVFSCSVMHEALHNHYTQKSLSLSPGSGSGGGGSDIQMTQSPSSVSASVGDRVTITCRASQGISSWLAWYQQKPGKAPKLLIYAASSLQSGVPSRFSGSGSGTDFTLTISSLQPEDFATYYCQQGVSFPRTFGCGTKVEIKGGGGSGGGGSGGGGSGGGGSEVQLVESGGGLVKPGGSLRLSCAASGFTFSSYSMNWVRQAPGKCLEWVSSISSSSSYIYYADSVKGRFTISRDNAKNSLYLQMNSLRAEDTAVYYCARGAPMGAAAGWFDPWGQGTLVTVSS
heavy 2: EVQLLESGGGLVQPGGSLRLSCAASGFTFSDNAMGWVRQAPGKGLEWVSAISGPGSSTYYADSVKGRFTISRDNSKNTLYLQMNSLRAEDTAVYYCAKVLGWFDYWGQGTLVTVSSASTKGPSVFPLAPSSKSTSGGTAALGCLVKDYFPEPVTVSWNSGALTSGVHTFPAVLQSSGLYSLSSVVTVPSSSLGTQTYICNVNHKPSNTKVDKKVEPKSCDKTHTCPPCPAPELLGGPSVFLFPPKPKDTLMISRTPEVTCVVVDVSHEDPEVKFNWYVDGVEVHNAKTKPREEQYNSTYRVVSVLTVLHQDWLNGKEYKCKVSNKALPAPIEKTISKAKGQPREPQVCTLPPSRDELTENQVSLTCLVKGFYPSDIAVEWESNGQPENNYKTTPPVLDSDGSFFLYSWLTVDKSRWQQGNVFSCSVMHEALHNHYTQKSLSLSPG
light: EIVLTQSPGTLSLSPGERATLSCRASQSVSDEYLSWYQQKPGQAPRLLIHSASTRATGIPDRFSGSGSGTDFTLAISRLEPEDFAVYYCQQYGYPPDFTFGQGTKVEIKRTVAAPSVFIFPPSDEQLKSGTASVVCLLNNFYPREAKVQWKVDNALQSGNSQESVTEQDSKDSTYSLSSTLTLSKADYEKHKVYACEVTHQGLSSPVTKSFNRGEC
notes: An A49 anti-NKG2D scFv sits at the C-terminus of one Fc chain; also called A49-F4-TriNKET-BCMA; NKG2D-F4-TriNKET-BCMA

- binding result (CD16-F158V): binds
- binding result [1]: binds
- binding result (NKG2D): no binding (tested: 100 ug/ml)
B2: anti-BCMA monoclonal antibody MAB42 (antibody, V domains shown)
VH: EVQLLESGGGLVQPGGSLRLSCAASGFTFSDNAMGWVRQAPGKGLEWVSAISGPGSSTYYADSVKGRFTISRDNSKNTLYLQMNSLRAEDTAVYYCAKVLGWFDYWGQGTLVTVSS
VL: EIVLTQSPGTLSLSPGERATLSCRASQSVSDEYLSWYQQKPGQAPRLLIHSASTRATGIPDRFSGSGSGTDFTLAISRLEPEDFAVYYCQQYGYPPDFTFGQGTKVEIK
notes: also called anti-BCMA mAb; BCMA mAb
